Experimental findings from the RNAGym collection of RNA variant scans (doi:10.7554/elife.80360) are described below.

Sequences and labels used below:
B1: CPEB3 Ribozyme (parent)
chain: GGGGGCCACAGCAGAAGCGUUCACGUCGCGGCCCCUGUCAGAUUCUGGUGAAUCUGCGAAUUCUGCUGU

In the data set the parent is B1. Description: self-cleavage, relative activity (ratio to wild type); higher = more cleavage; co-transcriptional.
Consider U21G U61C, for which the self-cleavage was found to be 0.214.
The same measure for U21G U61G: 0.24.
With C22A G41A, the self-cleavage turned out to be 0.12.
To C22A G41C belongs 0.138.
To C22A G41U belongs 0.154; to C22U C35U, 0.183.
To C22U C35A belongs 0.178.
On to C22A G31A, for which the self-cleavage turned out to be 0.174.
To C22A G31C belongs 0.137.
The same measure for C22A G31U: 0.194; for C22U C63A: 0.178; for C22U C63G: 0.156.
The same measure for C22U C63U: 0.265; for C22U G48C: 0.313; for C22U G48U: 0.401.
Turning to C22U G50C, the self-cleavage amounted to 0.243.
The same measure for C22U G50U: 0.312; for C22U G50A: 0.355; for C22G G58C: 0.161.
To C22G G58U belongs 0.202.
The same measure for C22G A42U: 0.194; for C22G A42C: 0.23; for C22G A42G: 0.132.
As to C22G C54G, the self-cleavage is 0.125.
The same measure for C22G C54U: 0.204; for C22G C54A: 0.121; for C22A C63A: 0.13.
The same measure for C22A C63G: 0.114; for C22G G37U: 0.527; for C22A G30C: 0.168.
The same measure for C22A G30U: 0.181; for C22A U61G: 0.25; for C22A U61A: 0.219.
For the variant C22A U61C, the self-cleavage was 0.164.
C22G U55G: the self-cleavage turned out to be 0.14.
The same measure for C22G U55A: 0.116.
To C22G U55C belongs 0.198.
The same measure for C22A G50U: 0.253.
Regarding C22A G50C, the self-cleavage was 0.234.
The same measure for C22G C35U: 0.208; for C22G C35G: 0.231.
To C22G C35A belongs 0.169; to U21G G65U, 0.243; to U21G G65C, 0.306.
Consider C22U G25U, for which the self-cleavage was 0.153.
The same measure for C22U G25C: 0.153; for C22U G25A: 0.164.
Turning to C22G U67C, the self-cleavage amounted to 0.175.
To C22G U67G belongs 0.121.
As for C22G U67A, the self-cleavage was determined as 0.242.
The same measure for C22G C27A: 0.149; for C22G C27U: 0.142; for C22U U26A: 0.2.
On to U21G U49C, for which the self-cleavage turned out to be 0.738.
To C22U A59U belongs 0.201.
The same measure for C22U A59C: 0.188; for C22G G65C: 0.196.
To C22G G65U belongs 0.212; to C22G G65A, 0.173; to U21G G31A, 0.175.
U21G G31U: the self-cleavage is 0.24.
To U21G U55C belongs 0.358.
The same measure for U21G U55A: 0.592; for U21G U55G: 0.346; for U21G U69A: 0.667.
To U21G U69C belongs 0.863.
As to U21G U69G, the self-cleavage came out at 0.823.
The same measure for C22A A23C: 0.202; for C22G A52C: 0.191.
To C22G A52U belongs 0.146; to C22G A52G, 0.124; to C22U U38C, 0.304.
To C22U U38A belongs 0.272.
As to C22A G65A, the self-cleavage came to 0.152.
The same measure for C22A G65U: 0.209; for C22G U49C: 0.123.
The same measure for C22G U49G: 0.153.
The same measure for C22U C57A: 0.166; for C22U C34G: 0.202; for C22U C34A: 0.22.
With C22U C34U, the self-cleavage was determined as 0.332.
On to C22A G56C, for which the self-cleavage was found to be 0.173.
In the case of C22A G56A, the self-cleavage was 0.134.
For U21G U43A, the self-cleavage is 0.235.
The same measure for U21G U43C: 0.428; for U21G U43G: 0.324.
The same measure for C22A C57G: 0.187; for C22A C57U: 0.137; for C22G A60C: 0.133.
The same measure for C22G A60U: 0.0906.
Regarding C22G U26G, the self-cleavage amounted to 0.163.
With C22A C24U, the self-cleavage came to 0.128.
To C22A C24G belongs 0.249.
Regarding U21G C63A, the self-cleavage stood at 0.245.
The same measure for C22G G25A: 0.177.
The same measure for C22G G25U: 0.146; for C22G G25C: 0.248.
To C22A U44G belongs 0.237; to C22U U36G, 0.175.
Turning to C22U U36C, the self-cleavage came out at 0.157.
The same measure for C22U U36A: 0.196.
To U21G U62A belongs 0.316.
To U21G U62C belongs 0.305; to U21G U62G, 0.273; to U21G U53G, 0.376.
Take U21G U53C: the self-cleavage came out at 0.354.
The same measure for C22G C33A: 0.195; for C22G C33U: 0.264.
To C22A C66U belongs 0.177.
To C22A C66G belongs 0.138; to C22G U61G, 0.257.
Take C22G U61C: the self-cleavage is 0.167.
To C22G C24A belongs 0.129; to C22G C32G, 0.139.
The same measure for C22G C32A: 0.117; for C22A C29G: 0.162.
In the case of C22A C29U, the self-cleavage stood at 0.158.
For the variant C22A C29A, the self-cleavage turned out to be 0.169.
The same measure for U21G U67G: 0.579; for C22A C35U: 0.138; for C22A C35G: 0.153.
The same measure for C22A C35A: 0.252.
The same measure for C22A C54U: 0.139; for C22A C54G: 0.2.
C22U G58U: the self-cleavage was determined as 0.374.
To C22U G58C belongs 0.223; to C22U G58A, 0.255.
As to C22G G48U, the self-cleavage was determined as 0.161.
To C22G G48A belongs 0.226; to C22U G37A, 0.957; to C22U G37C, 0.216.
The same measure for U21G U44G: 0.386.
Take U21G U44A: the self-cleavage stood at 0.498.
With U21G U44C, the self-cleavage was determined as 0.444.
The same measure for C22G C66A: 0.135; for C22G C66G: 0.182.
Consider C22U C24G, for which the self-cleavage was found to be 0.169.
For the variant C22U C24U, the self-cleavage was determined as 0.105.
To U21G G25U belongs 0.187.
In the case of U21G G25C, the self-cleavage amounted to 0.185.
To C22G U44C belongs 0.22; to C22G U44A, 0.158; to C22A U62G, 0.112.
The same measure for C22U C33G: 0.18; for C22U C33A: 0.176.
For the variant C22U C33U, the self-cleavage is 0.315.
To C22U A60G belongs 0.223; to C22U A60C, 0.158.
To C22U A60U belongs 0.137; to C22G G30U, 0.162; to C22G G30C, 0.166.
The same measure for C22G G30A: 0.219; for C22A U67G: 0.27; for C22A U67A: 0.174.
C22A U64G: the self-cleavage was 0.0937.
To C22A U64C belongs 0.168.
Regarding C22A U64A, the self-cleavage worked out at 0.176.
Consider C22A C39U, for which the self-cleavage was determined as 0.206.
The same measure for C22U A42U: 0.27; for C22U A42C: 0.247; for C22G G50U: 0.145.
To C22G G50C belongs 0.127; to C22U C45U, 0.318; to C22U C45G, 0.25.
For C22U C45A, the self-cleavage was found to be 0.33.
The same measure for C22A C33A: 0.2; for C22A C33U: 0.218.
